In US20230398116A1, “Agent for reversing resistance to anticancer drugs” (Y'S AC CO., LTD., priority 2020, published 2023):

Legend:
IL-26 [1] = biological target: T1, IL-26 (Homo sapiens, UniProt Q9NPH9); test: ELISA of antigen binding to human IL-26; design: purchased R&D Systems 1375-IL/CF; conditions: plates coated with 0.5 μg/ml human IL-26 monomer; calculated using GraphPadPrism
T1 sequence (Q9NPH9 22-171): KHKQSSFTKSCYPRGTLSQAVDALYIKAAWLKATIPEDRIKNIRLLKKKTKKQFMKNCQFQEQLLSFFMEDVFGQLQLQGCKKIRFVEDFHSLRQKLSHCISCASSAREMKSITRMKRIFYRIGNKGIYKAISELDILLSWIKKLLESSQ
Experimental: The antigen binding of purified Ch69-10-IgG1, Hu69-10A-IgG1, and Hu69-10B-IgG1 was analyzed by ELISA. ELISA plates were coated overnight at 4° C. with the addition of 0.5 μg/ml human IL-26 (recombinant human IL-26/AK155 monomer, Cat #1375-IL/CF, R&D Systems, Minneapolis, MN) at 100 μl/well in 0.2 M sodium carbonate buffer (pH 9.4). Wells were washed with the wash buffer and blocked with the ELISA buffer. Subsequently, 100 μl/well of test antibody (mouse 69-10, Ch69-10-IgG1, Hu69-10A-IgG1, or Hu69-10B-IgG1) serially diluted 2-fold in RPMI medium starting at 5 μg/ml was added to measure a binding with IL-26. After incubation at room temperature for 1 hour and washing the plates with a wash buffer, a 1/2,000-diluted HRP-conjugated goat anti-human kappa chain polyclonal antibody (Bethyl Laboratories) (for Ch69-10-IgG1, Hu69-10A-IgG1 and Hu69-10B-IgG1) or a 1/2,000-diluted HRP-labeled goat anti-mouse kappa chain polyclonal antibody (Bethyl Laboratories) (for mouse 69-10) in ELISA buffer was added at 100 μl/well to detect bound antibodies. After incubation at room temperature for 30 min and washing with the wash buffer, 100 μl/well of ABTS substrate (Sigma Aldrich) was added to start color development and 100 μl/well of 2% oxalic acid was added to stop the color development. The absorbance was measured at 405 nm.

IL-26 [2] = biological target: T1, IL-26; test: MTT assay of HUVECs stimulated with IL-26 (neutralizing activity of IL-26); assay type: cell-based; design: purchased R&D Systems; host or cells: added exogenously to HUVECs; conditions: HUVECs, IL-26 10 ng/mL, 48 hours, MTT assay
Experimental: Human and mouse breast cancer cells (1×10^4) were cultured in 10% FCS containing RPMI1640 medium on a 96-well flat bottom plate (Corning, Tewksbury, MA) at 37° C. for 24 hours, and then stimulated with IL-26 for 48 hours in the presence or absence of EGFR-TKI (gefitinib or erlotinib) at various concentrations, a signal inhibitor, and a neutralizing antibody. HUVECs were seeded in a 96-well flat bottom plate at 5×10^3 cells/well in a 2% FBS-containing EGM medium in which growth factors were reduced by half, and cultured at 37° C. for 12 hours. Thereafter, the medium was aspirated, and a recombinant human IL-26 dimer was adjusted to a final concentration of 10 ng/mL in a 2% FBS-containing EGM medium containing no growth factors, and added to the cells. The stimulation was started in the presence or absence of control human IgG and anti-human IL-26 antibodies, and the cells were cultured for 48 hours. Thereafter, a concentration of 20 μl or 1/10 of a 5 mg/ml MTT solution (Tetrazolium monosodium salt, WST-8) was added to each well, and the plate was allowed to stand for 1 hour. The absorbance at 450 nm/595 nm was measured using Microplate Reader (Bio-Rad, Hercules, CA) and data was analyzed with Microplate Manager 6 software (Bio-Rad).

[3] = Heterogeneous chronic GVHD model (NOG mice transplanted with human umbilical cord blood mononuclear cells); assay type: in vivo, mouse; conditions: for lung histopathology (inflammatory cell infiltration, fibrogenesis, collagen): eight weeks after transplantation, H&E and Azan-Mallory staining, FIG. 60
Experimental: On day −1, NOG mice were irradiated with a sublethal dose (100 cGy). On day 0, 5×10^6 human umbilical cord blood mononuclear cells were transplanted from the tail vein of NOG mice. Survival of the mice was assessed daily and body weight was measured twice a week. In an antibody treatment experiment, the control human IgG or anti-human IL-26 monoclonal antibody (the mouse antibody m69-10 and the humanized antibody h69-10A) was administered from day +28 of transplantation when clinical signs/symptoms of mild GVHD began to appear. The antibody solution was adjusted to a concentration of 1 mg/mL with sterile PBS, and 200 μL (200 μg) of the antibody solution per mouse was intraperitoneally injected twice a week. On day +56 after transplantation, the mice were sacrificed, and the skin, lung, liver, and large intestine were collected.
NOG mice were dissected, and then the skin, lung, liver, and large intestine on the back were excised, fixed in 10% formalin solution (Wako) at room temperature, and embedded in paraffin. Thereafter, a section having a thickness of 5 μm was prepared and placed on a glass slide, and stained with hematoxylin and eosin (H&E). In addition, in order to confirm the proliferation of collagen fibers, Azan-Mallory staining was performed. Images of the optical microscope were taken with an Olympus BX41 microscope (OLYMPUS, Tokyo, Japan) connected with an Olympus digital camera DP25, and CellSens software was used.

IL-26 [4] = biological target: T1, IL-26; test: ICAM-1 expression analysis of COLO205 (neutralizing activity of IL-26); assay type: cell-based; design: host or cells: added exogenously to COLO205 cells; conditions: COLO205, recombinant human IL-26 monomer 20 ng/mL, 24 hours, flow cytometry (MFI)
Experimental: COLO205 was seeded at 5×10^4 cells/well in a 96-well flat bottom plate, and stimulated with recombinant human IL-26 monomer (20 ng/mL) in the presence or absence of control human IgG or anti-human IL-26 antibody. After 24 hours of culture, the cells were collected and washed with ice-cold PBS (FCM buffer) containing 1% FBS and 0.1% sodium azide. Thereafter, a solution prepared by diluting a PE-labeled mouse anti-human ICAM-1 monoclonal antibody (clone 15.2, catalog number 50-0549-T100) of Bay bioscience (Kobe, Japan) or a PE-labeled mouse Igl,k isotype control monoclonal antibody (clone MOPC-21, catalogue number 400114) of BioLegend with FCM buffer to 5 μg/mL, was added at 50 μL/sample, and the mixture was allowed to stand at 4° C. for 25 minutes. Thereafter, the cells were washed with ice-cold FCM buffer, then measured with FACSCalibur, and the obtained data was analyzed with FlowJo.

[5] = 200 μg per mouse i.p. twice a week from day 28, data not shown

B1: 69-10: mouse anti-human IL-26 monoclonal antibody, clone 69-10, from deposited hybridoma (antibody, V domains shown)
VH: QVTLKESGPGILKPSQTLSLTCSFSGFSLSTSGMGVGWIRQPSGKGLEWLAHIWWDDDKYYNPSLKSQLTISKDTSRNQVFLKITSVDTADTATYYCVRGGITATHYYAMDYWGQGTSVTVSS
VL: DIQMTQSPASQSASLGESVTISCLASQTIGTWLSWYQQKPGKSPQLLIYAATSLADGVPSRFSGSGSGTKFSFKISSLQAEDFVSYYCQQLYSSPWTFGGGTKLEIK
IL-26 [1]
  EC50 values (binding to human IL-26, ELISA): 0.34 µg/mL
IL-26 [2]
  inhibitory effect of IL-26 (IL-26-promoted proliferation of HUVECs): not inferior to that of the commercially available goat anti-human IL-26 polyclonal antibody
[3]; [5]
  body weight loss: clearly reduced
  number of survival days: significantly prolonged
[3]
  lung histopathology (inflammatory cell infiltration, fibrogenesis, collagen): clearly reduced
[3]; listed as m69-10
  lung histopathology (inflammatory cell infiltration, fibrogenesis, collagen): suppression of inflammatory cell infiltration, reduction of fibrogenesis, and reduction of collagen deposition were remarkably observed
[3]; eighth week of transplantation
  hair disorder (appearance): slightly suppressed
IL-26 [4]
  inhibition of IL-26-enhanced expression of ICAM-1: partially inhibited
